The source of these data is the RNAGym collection of RNA variant scans (doi:10.1073/pnas.2313332121).

B1: TPR t1 (parent)
chain: GACCAAUCUGCCCUCAGAGCUCGAGAACAUCUUCGGAUGCAGAGGAGGCAGGCUUCGGUGGCGCGAUAGCGCCAACGUCCUCAACCUCCAAUGCAUCCCACCACAUGAUGAUGCCUGAAGAGCCUUGGUUUUUUG

This series covers variants of B1. Nature of the series: polymerase ribozyme fitness, log enrichment relative to wild type (log ratio); higher = more active; in vitro selection for triplet polymerase activity. The method, boiled down: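 In triplicate, a single round of in vitro selection was run on each mutant library, PCR-built and transcribed, covering one subunit of a heterodimeric triplet polymerase ribozyme. Frozen incubation at −7 °C followed annealing with a biotinylated primer, partner subunit and triplets, and extended constructs were then gel-excised, streptavidin-captured and taken through RT-PCR. Fitness is the logarithm of genotype enrichment over wild-type enrichment, from inverse-variance-weighted replicate averages of Illumina-sequenced inputs and outputs. […] only genotypes with ≥10 input reads and ≥1 read per output were kept.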
Turning to C4A A6C C53A C82A G117C, the “polymerase ribozyme fitness (log ratio)” value is -7.24.

As for C13A C85U C102U, the “polymerase ribozyme fitness (log ratio)” value is -4.16. For C40A G120U the value was -0.939; for C8G A26U U81A, -3.21; for G17U C49U C115U C123G U130A, -4.8. For C72U U112G the value was 0.605; for A29C A121U, 0.0449; for C8U G77A A84C A91C C98U, -2.47. As to C53G C56U G117A, the “polymerase ribozyme fitness (log ratio)” value is -1.63. For G63C G135U the value was -1.25; for A43U C73U U92G G113A, -2.84; for C8G C49A G71U U92A C123U, -2.6. As for A66C C85G U106A, the figure is -2.61; as for A6U G71C, -0.895; as for C49G G57U A83U G110A A121G, -1.99. As for C8G U14G C53U G71U, the figure is 0.478; as for G44C U92G U106A U116A, -6.02; as for U33G C94G G113A, -5.56.

On to G61A U87C U126G, for which the “polymerase ribozyme fitness (log ratio)” value is -1.59. As for C72A G77C U92C G122A, the figure is -3.67. In the case of C73A C86A, the “polymerase ribozyme fitness (log ratio)” value was -0.668. For A50G C89G the value was -1.08; for C8A G69U C99A G120A G122A, -1.73. For G52C C101A the value was -2.34; for G42C A103G C114G G122U, -6.92. Consider C11G C70A, for which the “polymerase ribozyme fitness (log ratio)” value was -0.991. As for A43U C49G G135U, the figure is -3.89.

Regarding A41U G45A, the “polymerase ribozyme fitness (log ratio)” value is -1.87. For C20A C86A U112A U125G U126G the value was -1.97; for A84G G117U, -3.75. As for G51A G77C A95C, the figure is -4.86; as for G35U C97U G120U, -5.69; as for G17C A18C A43U C89U, -2.92.

As to A37U A50G U54G, the “polymerase ribozyme fitness (log ratio)” value is -0.818. For C11G C97A the value was -4.05. For U92G U125A the value was -2.96; for A5U G36C G48U C85U, -2.32. For C28G A50G G69U the value was -0.817. On to U54A C102U, for which the “polymerase ribozyme fitness (log ratio)” value was -2.1.

On to C49G U78C A95C, for which the “polymerase ribozyme fitness (log ratio)” value is -2.13. Consider C12G C102U A119G C124U U125A, for which the “polymerase ribozyme fitness (log ratio)” value is -0.278. G52U G110A: the “polymerase ribozyme fitness (log ratio)” value is -1.73.

In the case of C76U G120C, the “polymerase ribozyme fitness (log ratio)” value was determined as 0.737. As for G57U C88G, the figure is -1.99; as for C49A G58A, -0.0101.

Take U14A C70G U126C G135U: the “polymerase ribozyme fitness (log ratio)” value was -4.99. As for G35A C56A, the “polymerase ribozyme fitness (log ratio)” value was -4.2. For G93A C101U C123U the value was 0.532; for G10U C73U, -0.579; for C13G G36U C101U U112C, -1.75. As for G120A G127U, the figure is 0.172; as for A29C G45C G52A C85U, -5.05. For A2C C49G the value was -2.18; for G58C G63C C82A U106G G113U, -5.77. On to C13U U14G A68G, for which the “polymerase ribozyme fitness (log ratio)” value was -5.25. Regarding A18C U106A, the “polymerase ribozyme fitness (log ratio)” value was -3.06. For G60A C123U the value was 1.14. On to C8A G42A G60U A121C, for which the “polymerase ribozyme fitness (log ratio)” value is -0.202.

A6U A50U: the “polymerase ribozyme fitness (log ratio)” value was -0.776.

On to A43G G128A, for which the “polymerase ribozyme fitness (log ratio)” value is -3.36.

A2U A50U C72G: the “polymerase ribozyme fitness (log ratio)” value is -4.02. As for C8A A29U A90C, the figure is -2.87; as for C49U C115G, -2.23. As for A91C U96G, the figure is -1.78; as for G36A G47C C124U, -0.979. For A27C G45C the value was -4.29.

Turning to C56G C70A, the “polymerase ribozyme fitness (log ratio)” value was -3.64. As for C73G C89A C99A G110C, the figure is -6.57; as for C8A A37U C86U, -0.337; as for G10C G128C, -3.1. As for C34A G44U G71A C114A, the figure is -6.89; as for C49A A90U A91U A111C A119G U130A U131C, -2.85; as for A103C G113C, -5.94. For the variant A24U C88G, the “polymerase ribozyme fitness (log ratio)” value was -5.62.

For the variant U9A C40G G113A, the “polymerase ribozyme fitness (log ratio)” value is -0.901. As for U7A C72U, the figure is -0.218; as for A18G G69U C102U C115A, -5.41; as for A6C G47A C124G, 0.159. For the variant G36C G57U A90C U106A, the “polymerase ribozyme fitness (log ratio)” value is -3.67. As for G10C C49A G51C G57C C72U C115G, the figure is -3.99; as for A43G C53G, -2.54; as for C11U U32C C123G, 1.18. For C8U G42U G48U C79A G122A U132A the value was -4.72; for G117A G135U, -1.92; for C72A G120C, 1.31.

With A46G G58A A83C G107U A121C, the “polymerase ribozyme fitness (log ratio)” value is -4.18. For C56U G120U the value was 0.743; for U9C A41C, -0.191. Take G63U G120U: the “polymerase ribozyme fitness (log ratio)” value is -0.921. For C8A C62A the value was -0.709; for C72A A95C, -0.926; for C13U U54A G61A, -0.0236. As for C3G U59G C88U C115A, the figure is -2.65; as for A6C C73U C89U G113A, -2.7. As for G36A C62U, the figure is -0.332. As to C15U C72A G110U, the “polymerase ribozyme fitness (log ratio)” value was -2.17. For C4G U78C U112G the value was -1.83; for G48A U81C C102A A121C, -0.944.

As to C13G A41U G117C, the “polymerase ribozyme fitness (log ratio)” value is -5.86.

As for C56U U78C A111C G113U, the “polymerase ribozyme fitness (log ratio)” value is -4.24. For C8A U112A the value was 1.61; for G71U C97A C115U A119G, -5.37; for C49G G93C, -1.06. For G44A C73G C85A U130A the value was -3.2; for C88G G110U, -2.67; for U109A C115G, -7.19. As for A105C G120U, the figure is -2.25; as for U54A G71C A83C G120U, -0.105. Regarding A66C C89A G117U, the “polymerase ribozyme fitness (log ratio)” value was -6.24.

For the variant A27C A90U, the “polymerase ribozyme fitness (log ratio)” value is -5.3. As for A27U C62U U125A, the “polymerase ribozyme fitness (log ratio)” value was -3.89.

On to C8U C12G G42U A74U C88A, for which the “polymerase ribozyme fitness (log ratio)” value was -1.72.

Turning to G51A G52A U54C, the “polymerase ribozyme fitness (log ratio)” value is -4.49.

For the variant A41U U87C A90U A91C, the “polymerase ribozyme fitness (log ratio)” value was -1.28. For C22G G69A C79A the value was -5.64; for U9C G69U A83U, -0.05; for C4U U9G G35A G47U G48U G63A C104U G113U, -6.85. On to C4U G52U G128C U131A, for which the “polymerase ribozyme fitness (log ratio)” value was -3.4.

On to C15A U132A, for which the “polymerase ribozyme fitness (log ratio)” value is -2.04. For C56A U129A the value was -1.22. On to C49A C72A A83C C101A A121U, for which the “polymerase ribozyme fitness (log ratio)” value is 0.741. As for C13G U14G C15A G71A G122A, the “polymerase ribozyme fitness (log ratio)” value was -4.63. Regarding G39A C40G G69U C101A, the “polymerase ribozyme fitness (log ratio)” value is -2.28.

On to C31A G45C C49U G69U C82U G107A, for which the “polymerase ribozyme fitness (log ratio)” value was -5.05. As to U87A C104G A111U, the “polymerase ribozyme fitness (log ratio)” value is -3.77.

C11G U14C A41G C56G: the “polymerase ribozyme fitness (log ratio)” value is -0.436. For G60A U87G C102G G113A the value was -6.32. On to C101G U112A, for which the “polymerase ribozyme fitness (log ratio)” value was 0.152. As for U54C C73A A121U, the figure is 2.33. For A6U C11U C80U C102U the value was -3.5. On to G44U U131A, for which the “polymerase ribozyme fitness (log ratio)” value was -1.33.

On to C99U C101A A121G C124G, for which the “polymerase ribozyme fitness (log ratio)” value was -3.31. As for G10U G120U, the figure is 1.99; as for C8U U14A G36A C72U, -2.09; as for C22G G63C G69C U112A, -5.1. Consider A50C G71U A121C, for which the “polymerase ribozyme fitness (log ratio)” value amounted to 0.855. For C53A C62U C97U G120C the value was 0.732; for G39U G71C U116G, -3.1. For U33A C86G C114U the value was -4.98.

For the variant G19U G51A G60C G120A, the “polymerase ribozyme fitness (log ratio)” value is -6.42.

For G39U C70G G122A, the “polymerase ribozyme fitness (log ratio)” value is -3.94. A43G A108G: the “polymerase ribozyme fitness (log ratio)” value is -4.26.

With U81C C88A C123G G135U, the “polymerase ribozyme fitness (log ratio)” value is 1.08. As to C49U C82G U96C C97U C115U U116A, the “polymerase ribozyme fitness (log ratio)” value was -6.51.

For the variant G47U A111C, the “polymerase ribozyme fitness (log ratio)” value is -3.27. As for C12G C22A, the figure is -4.18.

Turning to A18U C40U C72U U78G C123G G135C, the “polymerase ribozyme fitness (log ratio)” value is -1.48. As for G36A G42A U54G, the figure is -3.13; as for C8A G44C U106G, -1.03; as for C20A G110U, -3.99. As for A16U G127U, the figure is -2.81. For C101A U112A the value was 0.611. Take G48C G63A C101U: the “polymerase ribozyme fitness (log ratio)” value was -0.648. As for A16C A18C C40U G71U C79U, the figure is -5.22. As for A46G G69C, the “polymerase ribozyme fitness (log ratio)” value is -2.16. For C8U U21G the value was -0.546; for C22G G57A G63A C101A A105U, -6.73.

For the variant C8A U59A C82A U96A U112A, the “polymerase ribozyme fitness (log ratio)” value was 0.158. As for A5U C15G A43G U54G C114U G122U, the figure is -6.04. For C13G C72G C123U G135U, the “polymerase ribozyme fitness (log ratio)” value is -0.121. For C20G C31U G35U U109G the value was -4.7; for C12G G19U C72A, -5.03; for A2G C13A A68U C85A A103U G117U, -6.8. For G35A C89A the value was -5.84. Regarding U9C A105U U126A U132A, the “polymerase ribozyme fitness (log ratio)” value is -2.93.

As to C49A A50G G52U A105U, the “polymerase ribozyme fitness (log ratio)” value is -1.36. As for A74C C89A A91G C102A U109G, the figure is -5.5.
